Assay results from US20240209113A1 (BEIGENE SWITZERLAND, published 2024).

Key:
[1] = biological target: T1, Human CD137 ectodomain containing four CRDs (crystallization construct) (human, UniProt Q07011 24-162); assay: complex purified by gel filtration and crystallized
T1 construct: Expressed with a C-terminal TEV site and Fc tag; the Fc tag was cut off
T1 chain: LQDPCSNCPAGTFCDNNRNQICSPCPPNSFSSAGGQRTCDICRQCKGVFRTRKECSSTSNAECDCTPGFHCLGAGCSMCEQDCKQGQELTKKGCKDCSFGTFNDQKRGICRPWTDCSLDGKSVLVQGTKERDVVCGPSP

human OX40 ECD-His = biological target: T2, human OX40 ECD-His (human, UniProt P43489 29-216); assay: ELISA, antigens coated at 10 ug/ml; antibody concentration not given
T2 construct: also called human OX40-his; huOX40
T2 sequence: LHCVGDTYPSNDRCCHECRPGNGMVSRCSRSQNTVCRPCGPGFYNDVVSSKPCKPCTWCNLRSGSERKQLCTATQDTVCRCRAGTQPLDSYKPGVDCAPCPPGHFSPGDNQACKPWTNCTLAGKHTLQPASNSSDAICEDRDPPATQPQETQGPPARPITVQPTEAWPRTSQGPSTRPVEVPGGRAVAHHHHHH

human CD40 ECD-mIgG2a = biological target: T3, human CD40 ECD-mIgG2a (human); assay: as above
T3 construct: also called huCD40; TNFRSF5(CD40)
T3 sequence (chain, as listed by the source limits assumed): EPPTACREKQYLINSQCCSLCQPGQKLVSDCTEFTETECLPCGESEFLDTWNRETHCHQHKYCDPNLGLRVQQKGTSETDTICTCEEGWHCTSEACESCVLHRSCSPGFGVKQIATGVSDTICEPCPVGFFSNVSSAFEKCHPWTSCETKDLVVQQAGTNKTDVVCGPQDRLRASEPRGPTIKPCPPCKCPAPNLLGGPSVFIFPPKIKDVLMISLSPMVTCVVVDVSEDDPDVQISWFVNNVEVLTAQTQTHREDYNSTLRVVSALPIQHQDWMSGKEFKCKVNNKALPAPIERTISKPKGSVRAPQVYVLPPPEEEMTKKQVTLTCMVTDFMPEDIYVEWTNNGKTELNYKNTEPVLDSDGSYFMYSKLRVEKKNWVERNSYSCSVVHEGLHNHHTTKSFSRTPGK

TNFRSF1B(CD120b) = biological target: T4, TNFRSF1B(CD120b) (UniProt P20333 23-257); assay: as above
T4 construct: Bought protein
T4 sequence (looked up): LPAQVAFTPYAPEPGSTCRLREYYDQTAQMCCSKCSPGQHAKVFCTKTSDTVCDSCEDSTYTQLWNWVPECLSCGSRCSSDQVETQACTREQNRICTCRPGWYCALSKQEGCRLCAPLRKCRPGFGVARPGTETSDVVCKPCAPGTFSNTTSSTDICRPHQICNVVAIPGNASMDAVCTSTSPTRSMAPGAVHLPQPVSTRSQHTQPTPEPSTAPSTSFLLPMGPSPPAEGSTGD

TNFRSF1A(CD120a) = biological target: T5, TNFRSF1A(CD120a) (UniProt P19438 30-211, limits assumed); assay: as above
T5 construct: Bought protein
T5 sequence (looked up): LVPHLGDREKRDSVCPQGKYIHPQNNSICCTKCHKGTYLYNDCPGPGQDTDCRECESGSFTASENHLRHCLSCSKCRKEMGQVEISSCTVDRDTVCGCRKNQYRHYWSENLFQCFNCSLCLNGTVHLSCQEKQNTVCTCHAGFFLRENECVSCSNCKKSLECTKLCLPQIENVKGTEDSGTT

human CD137 ECD-mIgG2a = biological target: T6, human CD137 ECD-mIgG2a (human); assay: competition ELISA on coated human CD137 ECD-mIgG2a: BGA-5623 (IgG4 Fc) detected with anti-human IgG-HRP in the presence of serially diluted human CD137 ligand ECD-mIgG2a
T6 construct: Human CD137 AA 24-183 fused to mouse IgG2a Fc; also called huCD137

B1: VH (BGA-5623) (VHH)
VHH: EVQLLESGGGLVQPGGSLRLSCAASGFTVSAEDVGWVRQAPGKGLEWVSAILDKGGSTYYAESVKGRFTISRDNAKNTLYLQMSSLRAEDTAVYYCARIVYHAGGGVTFDTRGQGTQVTVSS
notes: Human VH single domain made in E. coli with an N-terminal HIS-MBP tag removed by TEV protease
Does B1 bind [1]?
Result: binds

B2: Urelumab analog (antibody, human IgG4 S228P, kappa, V domains shown)
VH: QVQLQQWGAGLLKPSETLSLTCAVYGGSFSGYYWSWIRQSPEKGLEWIGEINHGGYVTYNPSLESRVTISVDTSKNQFSLKLSSVTAADTAVYYCARDYGPGNYDWYFDLWGRGTLVTVSS
VL: EIVLTQSPATLSLSPGERATLSCRASQSVSSYLAWYQQKPGQAPRLLIYDASNRATGIPARFSGSGSGTDFTLTISSLEPEDFAVYYCQQRSNWPPALTFGGGTKVEIKR
notes: also called Urelumab analog antibody
Does B2 bind (human OX40 ECD-His)?
Result: no binding

Does B2 bind (human CD40 ECD-mIgG2a)?
Result: no binding

Does B2 bind (TNFRSF1B(CD120b))?
Result: no binding

Does B2 bind (TNFRSF1A(CD120a))?
Result: no binding

B3: human CD137 ligand-mIgG2a (Fc fusion)
chain: EPRGPTIKPCPPCKCPAPNLLGGPSVFIFPPKIKDVLMISLSPIVTCVVVDVSEDDPDVQISWFVNNVEVHTAQTQTHREDYNSTLRVVSALPIQHQDWMSGKEFKCKVNNKDLPAPIERTISKPKGSVRAPQVYVLPPPEEEMTKKQVTLTCMVTDFMPEDIYVEWTNNGKTELNYKNTEPVLDSDGSYFMYSKLRVEKKNWVERNSYSCSVVHEGLHNHHTTKSFSRTPGKGGGGSREGPELSPDDPAGLLDLRQGMFAQLVAQNVLLIDGPLSWYSDPGLAGVSLTGGLSYKEDTKELVVAKAGVYYVFFQLELRRVVAGEGSGSVSLALHLQPLRSAAGAAALALTVDLPPASSEARNSAFGFQGRLLHLSAGQRLGVHLHTEARARHAWQLTQGATVLGLFRVTPEIPAGLPSPRSE
notes: also called human CD137 ligand ECD-mIgG2a; huCD137 ligand
For B3, which “IC50 (read off the curve)” value (human CD137 ECD-mIgG2a) is on record?
Its value is about 2 µg/mL.
